From paper PMC4841555 (2016)

Target: Amyloid-beta(1-42) Aβ(1-42) (Homo sapiens, UniProt P05067)
Assay: BLI

| Binder | Kd [µM] |
| --- | --- |
| RPITRLRTHQNRRPITRLRTHQNR [DB3DB3] | 1 |
| RPITRLRTHQNR [DB3] | 75 |
